Consider two molecules from patent publication US9272016B2, “Methods to enhance RNAi oligonucleotide delivery to respiratory epithelial cells” (University of Iowa Research Foundation, priority 2012, dated 2016).

Holding throughout (assay type): cell-based
Experiment [1] has as its system HPRT mRNA. Put plainly: Pretreatment of well differentiated pig airway epithelia before HPRT siRNA transfection, qPCR. The following applies: well differentiated PAE; KGF 50 ng/ml 24 h, EGTA 6 mM 30 m, LLnL 40 μM 24 hrs; then 250 nM HPRT siRNA with RNAiMAX or Transductin. Here is the method:
(§1) For airway epithelia that were either well or poorly differentiated, transfection was done mostly according to the manufacturer's protocol. In all cases, the apical surface of epithelia was washed twice with PBS before adding the transfection mixture to the apical surface. The mixture was then left on the cells for 24 h for all transfection reagents. For PK1 cells, reverse transfection was performed in a 48-well plate by first adding the siRNA-RNAiMAX reagent mixture onto the plate and then adding the dispersed cells (40,000 cells) on top of the mixture and allowing the cells to adhere and establish growth for 24 h. […]
(§2) Total RNA was isolated using SV96 RNA isolation kit (Promega), according to manufacturer's protocol. […] One-fifteenth of the cDNA was then amplified and analyzed by Taqman assay in the 7900 Real Time PCR System (Applied Biosystems) using synthesized primer-probe pairs (IDT, Coralville, Iowa), reaction buffer and Immolase DNA polymerase (Bioline, Taunton, Mass.). […] Absolute quantification of an mRNA target sequence within an unknown sample was determined by reference to a standard curve. […]
(§3) Wortmannin was purchased from Sigma (St. Louis, Mo.) as a ready to use solution. […]

The subject of another experiment is human airway epithelia. The experiment is described as follows: Confocal imaging of DIG-labeled siRNA uptake in human airway epithelia. The following applies: EGF 100 μg/ml for 15 min, imaged 2 h after transfection, vs untreated cells (data not shown). Here is the method: The primary human airway epithelia grown at air-liquid interface were transfected with the DIG-labeled siRNA at a concentration of 250 ng/ml after complexing with Transductin. The transfection mixture was left on the apical surface for 2 h. At the end of this period, the cells were fixed in 2% formaldehyde, permeabilized in 0.2% Triton-x-100 and blocked in 1% BSA for 1 h. The cells were then stained with mouse antibody to DIG (Roche Biochemicals) for 1 h followed by either Alexa 488 labeled goat anti-mouse secondary antibody for 1 h followed by Alexa 488 labeled rabbit […] antibody (Invitrogen) for 1 or in some cases with Alexa 564 goat anti-mouse secondary antibody for 1 h. The cells were finally stained with nuclear stain, ToPro 3 for 10 minutes. The filter, containing the cells, was removed from the culture insert by cutting the edges with razor blade and then mounted onto a slide by the use of Vectashield. The slide was visualized by confocal microscopy.

Experiment [2] deals with HPRT mRNA. Put plainly: Pretreatment of well-differentiated human airway epithelia before HPRT siRNA transfection, qPCR. Here is the method: as §1, §2, §3

B1: KGF: Keratinocyte growth factor, a member of the fibroblast growth factor family (protein, UniProt P21781 32-194, looked up)
Fibroblast growth factor 7: CNDMTPEQMATNVNCSSPERHTRSYDYMEGGDIRVRRLFCRTQWYLRIDKRGKVKGTQEMKNNYNIMEIRTVAVGIVAIKGVESEFYLAMNKEGKLYAKKECNEDCNFKELILENHYNTYASAKWTHNGGEMFVALNQKGIPVRGKKTKKEQKTAHFLPMAIT
B1: the “silencing of HPRT mRNA after pretreatment” value in the experiment with HPRT mRNA [1] is “did not reduce”.

B2: EGF: human Epidermal Growth Factor (Sigma-Aldrich) (protein, UniProt P01133 23-1207, looked up)
Pro-epidermal growth factor: PQHWSCPEGTLAGNGNSTCVGPAPFLIFSHGNSIFRIDTEGTNYEQLVVDAGVSVIMDFHYNEKRIYWVDLERQLLQRVFLNGSRQERVCNIEKNVSGMAINWINEEVIWSNQQEGIITVTDMKGNNSHILLSALKYPANVAVDPVERFIFWSSEVAGSLYRADLDGVGVKALLETSEKITAVSLDVLDKRLFWIQYNREGSNSLICSCDYDGGSVHISKHPTQHNLFAMSLFGDRIFYSTWKMKTIWIANKHTGKDMVRINLHSSFVPLGELKVVHPLAQPKAEDDTWEPEQKLCKLRKGNCSSTVCGQDLQSHLCMCAEGYALSRDRKYCEDVNECAFWNHGCTLGCKNTPGSYYCTCPVGFVLLPDGKRCHQLVSCPRNVSECSHDCVLTSEGPLCFCPEGSVLERDGKTCSGCSSPDNGGCSQLCVPLSPVSWECDCFPGYDLQLDEKSCAASGPQPFLLFANSQDIRHMHFDGTDYGTLLSQQMGMVYALDHDPVENKIYFAHTALKWIERANMDGSQRERLIEEGVDVPEGLAVDWIGRRFYWTDRGKSLIGRSDLNGKRSKIITKENISQPRGIAVHPMAKRLFWTDTGINPRIESSSLQGLGRLVIASSDLIWPSGITIDFLTDKLYWCDAKQSVIEMANLDGSKRRRLTQNDVGHPFAVAVFEDYVWFSDWAMPSVMRVNKRTGKDRVRLQGSMLKPSSLVVVHPLAKPGADPCLYQNGGCEHICKKRLGTAWCSCREGFMKASDGKTCLALDGHQLLAGGEVDLKNQVTPLDILSKTRVSEDNITESQHMLVAEIMVSDQDDCAPVGCSMYARCISEGEDATCQCLKGFAGDGKLCSDIDECEMGVPVCPPASSKCINTEGGYVCRCSEGYQGDGIHCLDIDECQLGEHSCGENASCTNTEGGYTCMCAGRLSEPGLICPDSTPPPHLREDDHHYSVRNSDSECPLSHDGYCLHDGVCMYIEALDKYACNCVVGYIGERCQYRDLKWWELRHAGHGQQQKVIVVAVCVVVLVMLLLLSLWGAHYYRTQKLLSKNPKNPYEESSRDVRSRRPADTEDGMSSCPQPWFVVIKEHQDLKNGGQPVAGEDGQAADGSMQPTSWRQEPQLCGMGTEQGCWIPVSSDKGSCPQVMERSFHMPSYGTQTLEGGVEKPHSLLSANPLWQQRALDPPHQMELTQ
modifications: Pro-epidermal growth factor
In the case of B2, the “uptake of the DIG signal” value with human airway epithelia was “increased uptake”. Moreover, the “decrease in HPRT mRNA levels” value in the experiment on HPRT mRNA [2] (human airway cells, EGF 100 μg/ml for 15 min apically before siRNA-Transductin (250 nM), 3 donors) is 15-20%. Further, the “siRNA uptake and knockdown” value in the experiment with HPRT mRNA [2] (pretreatment of the mucosal surface with EGF (200 μg/ml), well differentiated cells, species not stated) is “enhanced uptake and facilitated siRNA knockdown”.
